According to doi:10.1101/2022.08.24.505195 (bioRxiv, 2022):

Target: the molecule itself
Experiment: SEC

B1: EBOV VP40 with 6xHis tag (pET46-VP40-6xHis), recombinant dimer (natural protein)
chain: MRRVILPTAPPEYMEAIYPVRSNSTIARGGNSNTGFLTPESVNGDTPSNPLRPIADDTIDHASHTPGSVSSAFILEAMVNVISGPKVLMKQIPIWLPLGVADQKTYSFDSTTAAIMLASYTITHFGKATNPLVRVNRLGPGIPDHPLRLLRIGNQAFLQEFVLPPVQLPQYFTFDLTALKLITQPLPAATWTDDTPTGSNGALRPGISFHPKLRPILLPNKSGKKGNSADLTSPEKIQAIMTSLQDFKIVPIDPTKNIMGIEVPETLVHKLTGKKVTSKNGQPIIPVLLPKYIGLDPVAPGDLTMVITQDCDTCHSPASLPAVIEK
stoichiometry N: 2
